Literature values, collected in PMC11548882.

Target: EGFR (Homo sapiens) (UniProt P00533)

- Kd: 4 nM
Substance: EGF (from UniProt P01133)
